For this experiment, the target named is SARS-CoV-2 RBD (wild type) (SARS-CoV-2, UniProt P0DTC2 319-541). The experiment can be described thus: SPR. Background: In SPR one partner is held on a chip, and binding of the other changes the refractive index at the surface.

Among the data in paper PMC8476561 (2021) are Kd values, retold here.

The term Kd denotes a measure of binding affinity in units of concentration.

B1: Mouse angiotensin-converting enzyme 2 (receptor)
chain: SLTEENAKTFLNNFNQEAEDLSYQSSLASWNYNTNITEENAQKMSEAAAKWSAFYEEQSKTAQSFSLQEIQTPIIKRQLQALQQSGSSALSADKNKQLNTILNTMSTIYSTGKVCNPKNPQECLLLEPGLDEIMATSTDYNSRLWAWEGWRAEVGKQLRPLYEEYVVLKNEMARANNYNDYGDYWRGDYEAEGADGYNYNRNQLIEDVERTFAEIKPLYEHLHAYVRRKLMDTYPSYISPTGCLPAHLLGDMWGRFWTNLYPLTVPFAQKPNIDVTDAMMNQGWDAERIFQEAEKFFVSVGLPHMTQGFWANSMLTEPADGRKVVCHPTAWDLGHGDFRIKMCTKVTMDNFLTAHHEMGHIQYDMAYARQPFLLRNGANEGFHEAVGEIMSLSAATPKHLKSIGLLPSDFQEDSETEINFLLKQALTIVGTLPFTYMLEKWRWMVFRGEIPKEQWMKKWWEMKREIVGVVEPLPHDETYCDPASLFHVSNDYSFIRYYTRTIYQFQFQEALCQAAKYNGSLHKCDISNSTEAGQKLLKMLSLGNSEPWTKALENVVGARNMDVKPLLNYFQPLFDWLKEQNRNSFVGWNTEWSPYADQSIKVRISLKSALGANAYEWTNNEMFLFRSSVAYAMRKYFSIIKNQTVPFLEEDVRVSDLKPRVSFYFFVTSPQNVSDVIPRSEVEDAIRMSRGRINDVFGLNDNSLEFLGIHPTLEPPYQPPV
The molecule B1 displayed a Kd of more than 1 mM.
